Data reported in patent publication US7282356B2, “D-aminoacylase mutants” (Daicel Chemical Industries, Ltd., priority 2002, dated 2007).

Columns and labels:
[1] = D-aminoacylase activity assay (20 mM N-acetyl-D-tryptophan, TNBS method); assay type: biochemical
Description: The enzyme reaction can be achieved by incubating 1.0 ml of a reaction solution containing 20 mM N-acetyl-D-tryptophan (Sigma), 50 mM Tris-hydrochloride buffer (pH 7.5), and an enzyme solution at 30° C. for 10 minutes. Then, the reaction is stopped by adding 0.5 ml of a stop solution containing TCA (comprising 0.11 M trichloroacetic acid, 0.22 M sodium acetate, and 0.33 M acetic acid). The amount of D-tryptophan produced can be determined by TNBS method (Biosci. Biotech. Biochem., 58, 24 (1994)).
For example, 0.25 ml of 100 mM Na2B4O7 is added to 0.25 ml of the stop solution, 10 μl of 110 mM TNBS (trinitrobenzenesulfonic acid) solution is added to the mixed solution, and immediately thereafter, the resulting mixture is stirred. After the mixture is allowed to stand for five minutes, 1 ml of 100 mM NaHPO4 containing 1.5 mM Na2SO3 is added to the mixture to stop the color reaction. Then, the absorbance of the solution is determined at 420 nm. One unit of the enzyme activity is defined as the amount of enzyme that catalyzes the production of 1 μmol of D-tryptophan at 30° C. for one minute.

[2] = Reaction of third generation mutants with 7% N-acetyl-DL-tryptophan in microtiter plate; assay type: cell-based, E. coli HB101; settings: 25° C., 8 hours
Description: With a conventional method, recombinant plasmid DNAs were purified from total 10 strains of E. coli JM109 transformant obtained in Example 16. Cells of E. coli HB101 strain were transformed with the recombinant plasmid DNAs to prepare transformants. Each colony grown on a culture plate was inoculated with a toothpick to a well of a microtiter plate which contained 150 μl of LB culture medium containing 50 μg/ml ampicillin and 0.02 mM IPTG, and then the microtiter plate was covered with Breathable Sealing Membrane (Nalgene). The microtiter plate was incubated at 37° C. for 18 hours while being shaken. The reaction was carried out using total 200 μl of a reaction solution containing 100 μl of culture medium solution, 300 mM Tris-hydrochloride buffer (pH 8.0), 7% N-acetyl-DL-tryptophan, and distilled water in each well of a microtiter plate at 25° C. for 8 hours while being shaken. When all of the N-acetyl-D-tryptophan contained in substrate is converted to D-tryptophan, the yield is taken as 100%. While the yield was about 70% with the wild type, the yield was roughly 100% with a third generation mutant obtained in […]. Thus, the competitive inhibition was confirmed to be impaired in the third generation mutants.

[3] = Production of D-tryptophan from N-acetyl-DL-tryptophan using cell-free extract (10 U/mL); assay type: biochemical; settings: for Yield of D-Trp: 10 U/mL reaction solution, 30° C., 24 hours
Description: Wild-type or mutant D-aminoacylase extract can be obtained by, for example, recovering microbial cells by filtration and centrifugation, suspending them in a buffer, and disrupting them using a Bead-Beater (BIOSPEC PRODUCT). Reaction solutions containing 10 U/mL enzyme thus obtained 300 mM Tris-hydrochloride buffer (pH 8.0), and 12%, 15%, 17%, 20% or 22% N-acetyl-DL-tryptophan, are incubated at 30° C. for 24 hours while being shaken. Thus, D-tryptophan can be produced in 80% or higher yield from 12%, 15%, or 17% substrate, or in 50% or higher yield from 20% or 22% substrate.
0.5 ml of a reaction solution containing 5 units of cell-free extract obtained in the step of enzyme purification described in Example 19 or Example 23, 12%, 15%, 17%, 20%, or 22% N-acetyl-DL-tryptophan, and 300 mM Tris-hydrochloride buffer (pH 8.0) was incubated at 30° C. for 24 hours while being stirred. While with the wild type the yield of D-tryptophan was lower than 10% at any substrate concentration, with the mutant 3AD-0089 the yield of D-tryptophan was 80% or higher at substrate concentrations of up to 17%. Furthermore, the mutant was confirmed to enable the production of D-tryptophan in 66% yield in the presence of 20% substrate, or in 58% yield in the presence of 22% substrate.

[4] = Second generation mutants: activity of producing D-tryptophan (TNBS Abs. 420 / OD600); assay type: cell-based, E. coli JM109; settings: 5% N-acetyl-DL-tryptophan and 2% N-acetyl-L-tryptophan
Description: Three types of the E. coli transformant libraries obtained in Example 11 were inoculated on an LB agar plate. Each colony grown on the plate was inoculated with a toothpick to a well of a microtiter plate which contained 150 μl of LB culture medium containing 50 μg/ml ampicillin and 0.02 mM IPTG, and then the microtiter plate was covered with Breathable Sealing Membrane (Nalgene). The microtiter plate was incubated at 37° C. for 18 hours while being shaken. 10 μl of the culture medium solution was added to the reaction solution containing 300 mM Tris-hydrochloride buffer (pH 8.0), 0.1% cetylpyridinium bromide, 5% N-acetyl-DL-tryptophan, 1% N-acetyl-L-tryptophan, and distilled water in the wells of a microtiter plate. The plate was incubated at 25° C. for 1 hour while being shaken. Then, D-tryptophan produced from N-acetyl-D-tryptophan was quantified by colorimetry according to the TNBS method. […]
The amino acid substitution in each mutant, and the effect of the amino acid substitution, which was estimated as an activity of producing D-tryptophan in the presence of 5% N-acetyl-DL-tryptophan and 2% N-acetyl-L-tryptophan, are shown in Table 2. The “activity”, as used herein, refers to “a colorimetric value of the reaction solution determined at the end of reaction by the TNBS method (Abs. 420)/the degree of bacterial growth (OD600)”.

B1: wild-type: D-aminoacylase derived from Alcaligenes denitrificans subsp. xylosoxydans MI-4, SEQ ID NO: 1 (protein)
chain: MSQSDSQPFDLLLAGGTLIDGSNTPGRRADLGVRGDRIAAIGDLSDAAAHTRVDVSGLVVAPGFIDSHTHDDNYLLRRRDMTPKISQGVTTVVTGNCGISLAPLAHANPPAPLDLLDEGGSYRFERFADYLDALRATPAAVNAACMVGHSTLRAAVMPDLQRAATDEEIAAMRDLAEEAMASGAIGISTGAFYPPAARATTEEIIEVCRPLSAHGGIYATHMRDEGEHIVAALEETFRIGRELDVPVVISHHKVMGQPNFGRSRETLPLIEAAMARQDVSLDAYPYVAGSTMLKQDRVLLAGRTIITWCKPFPELSGRDLDEVAAERGKSKYDVVPELQPAGAIYFMMDEPDVQRILAFGPTMIGSDGLPHDERPHPRLWGTFPRVLGHYARDLGLFPLETAVWKMTGLTAARFGLAGRGQLQAGYFADLVVFDPATVADTATFEHPTERAAGIHSVYVNGAPVWQEQAFTGQHAGRVLARTAA
modifications: Alcaligenes denitrificans subsp. xylosoxydans MI-4
In the case of B1, the “D-aminoacylase activity of cell extract” value ([1]; cell extract of E. coli JM109 transformant) is reported as 34 U/mg, the “specific activity of the purified enzyme” value ([1]; purified enzyme, N-acetyl-D-tryptophan) is reported as 528 U/mg and the yield [2] is reported as “about 70%”. The “Yield of D-Trp” value ([3]; 12% N-Ac-DL-Trp) was 9.4%, the “Yield of D-Trp” value ([3]; 15% N-Ac-DL-Trp) was 3.5% and the “Yield of D-Trp” value ([3]; 17% N-Ac-DL-Trp) was 1.8%. The “Yield of D-Trp” value ([3]; 20% N-Ac-DL-Trp) was 0.5%, the “Yield of D-Trp” value ([3]; 22% N-Ac-DL-Trp) was 0.5% and the “yield of D-tryptophan” value ([3]; at any substrate concentration (12% to 22%)) was “lower than 10%”. For the same molecule, the “Activity of producing D-tryptophan” value [4] was 2.58.
